Results reported in patent US20220396632A1 (VERSEAU THERAPEUTICS, published 2022).
Non-standard residues stand in square brackets, D forms with d. No end group written: not given here. *: point of attachment. Biotin = O=C1N[C@H]2[C@H](CS[C@H]2CCCCC(=O)*)N1; sY = N[C@@H](Cc1ccc(OS(=O)(=O)O)cc1)C(=O)O

T1: Sulfotyrosine D6 biotin peptide (human)
T1 construct: also called D6 peptide
T1 peptide: ENSSFY[sY][sY]D[sY]LDEVAFGGK(Biotin)

T2: Recombinant human PSGL-1(ECD)-hFc1 (R&D Systems, Cat. 3345-PS) (human, UniProt Q14242 42-305)
T2 construct: Bought; Gln42-Val295 counted on AAC50061; also called PSGL-1-Fc; PSGL-1-hFc1 chimera; not shown: human IgG1 Fc, Pro100-Lys330
T2 sequence: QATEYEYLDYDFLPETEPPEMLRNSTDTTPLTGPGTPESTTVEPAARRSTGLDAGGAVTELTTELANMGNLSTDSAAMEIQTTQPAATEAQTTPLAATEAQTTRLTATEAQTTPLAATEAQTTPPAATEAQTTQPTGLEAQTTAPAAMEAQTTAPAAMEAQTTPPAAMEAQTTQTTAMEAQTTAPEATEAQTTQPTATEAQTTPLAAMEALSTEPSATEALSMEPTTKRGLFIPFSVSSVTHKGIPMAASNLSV

T3: SulfoCCK biotin peptide (human)
T3 construct: also called sulfotyrosine CCK peptide
T3 peptide: SHRISDRD[sY]MGWMDFGGK(Biotin)

T4: Biotin Y46,48,51(SO3) PSGL-1(42-62) peptide (human, sulfotyrosine at Y46, Y48 and Y51; C-terminal Lys-biotin)
T4 construct: also called fully sulfated N-terminal PSGL-1 peptide
T4 peptide: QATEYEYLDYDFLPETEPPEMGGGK

T5: Biotin PSGL-1(42-62) peptide, unmodified (human, C-terminal Lys-biotin)
T5 construct: Residues 42-62 followed by GGGK-biotin; also called WT; wild-type
T5 peptide: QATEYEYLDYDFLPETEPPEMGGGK

T6: Scrambled Y42,52,63(SO3) PSGL-1(42-62) biotin peptide (sulfotyrosine at peptide positions 1, 11 and 22; C-terminal Lys-biotin)
T6 peptide: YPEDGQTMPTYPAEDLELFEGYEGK

T7: Cynomolgus PSGL-1(ECD)-HIS (cynomolgus macaque)
T7 construct: also called Cyno PSGL1-His
T7 chain: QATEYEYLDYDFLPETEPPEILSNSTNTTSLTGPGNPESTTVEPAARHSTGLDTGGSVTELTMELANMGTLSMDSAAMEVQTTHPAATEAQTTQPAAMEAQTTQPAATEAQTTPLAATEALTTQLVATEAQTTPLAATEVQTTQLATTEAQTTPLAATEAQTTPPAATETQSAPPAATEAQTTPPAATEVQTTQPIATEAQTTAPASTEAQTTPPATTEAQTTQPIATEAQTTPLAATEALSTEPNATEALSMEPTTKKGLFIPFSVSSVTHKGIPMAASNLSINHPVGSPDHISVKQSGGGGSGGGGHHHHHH


Legend:
[1] = molecular target: T1, Sulfotyrosine D6 biotin peptide; test: ELISA, 50 nM mAb
Protocol: (§1) Recombinant PSGL-1-hFc1 chimera protein consisting of PSGL-1's extracellular domain (ECD) served as a positive control. […] Primary antibody was added (25 ul per well) in duplicate at 50 nM in assay buffer (blocking buffer containing 0.05% Tween®20) into test and control (just blocked) wells and the plate incubated for 45 min at 37° C.

[2] = molecular target: T2, Recombinant human PSGL-1(ECD)-hFc1 (R&D …); test: ELISA, 50 nM mAb
Protocol: as §1

SulfoCCK biotin peptide = molecular target: T3, SulfoCCK biotin peptide; test: ELISA, 50 nM mAb
Protocol: as §1

[3] = molecular target: T2, Recombinant human PSGL-1(ECD)-hFc1 (R&D …); test: blocking ELISA vs L-selectin-Fc
Protocol: A typical selectin blocking ELISA assay involved coating high binding half-well plates (Corning, Cat. #3690) with 2.5 ug/mL/25 ul per well of recombinant PSGL-1-Fc protein (R&D Systems, Cat #3345-PS) in PBS, pH 7.4, overnight at 4° C. […] Antibody (test and controls) was serially diluted (25 ul/well) in duplicate in assay buffer (3% BSA in wash buffer) into appropriate wells and the plate incubated for 45 min at 37° C. […] The plate was washed ×3 and HRP-conjugated streptavidin was added in assay buffer [25 ul per well; (Jackson Immunoresearch, Cat. #016-030-084)] and the plate incubated for 45 min at 37° C. […] For each antibody, an IC50 value was determined from sigmoidal fitted titration curves.

[4] = molecular target: T8, Cynomolgus PSGL-1(ECD)-hFc1 (cynomolgus macaque); test: ELISA, 20 nM mAb on plate cyno PSGL-1(ECD)-Fc
T8 construct: also called Cyno PSGL1-Fc; Cyno PSGL-1(ECD)-Fc
T8 sequence (chain, as listed by the source limits assumed): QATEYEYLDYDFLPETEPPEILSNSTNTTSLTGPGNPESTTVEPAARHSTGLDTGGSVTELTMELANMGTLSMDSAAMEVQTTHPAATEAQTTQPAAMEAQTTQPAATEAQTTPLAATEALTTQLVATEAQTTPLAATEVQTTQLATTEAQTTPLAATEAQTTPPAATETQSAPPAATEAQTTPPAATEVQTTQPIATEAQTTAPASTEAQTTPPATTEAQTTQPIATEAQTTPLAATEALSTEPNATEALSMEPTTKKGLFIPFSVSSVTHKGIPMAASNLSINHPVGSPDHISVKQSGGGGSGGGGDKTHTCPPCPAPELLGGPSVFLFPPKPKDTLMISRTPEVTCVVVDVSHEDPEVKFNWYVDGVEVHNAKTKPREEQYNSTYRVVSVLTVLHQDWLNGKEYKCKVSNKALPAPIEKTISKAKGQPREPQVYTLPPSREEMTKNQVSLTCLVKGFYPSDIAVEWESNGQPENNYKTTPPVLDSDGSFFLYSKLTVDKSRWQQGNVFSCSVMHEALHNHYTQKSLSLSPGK
Procedure, shortened: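 Cyno PSGL-1 ECD protein coated overnight at 4° C. at 3 ug/mL in PBS pH 7.4; anti-PSGL-1 IgG added either at single 20 nM or as 0.003-200 nM binding curve, 45 min at 37° C. Bound mAb read at A450 nm with HRP/TMB; duplicates averaged, background subtracted.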

[5] = molecular target: T4, Biotin Y46,48,51(SO3) PSGL-1(42-62) …; test: ELISA, immobilized biotin peptide
Procedure, shortened: (§2)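 In this ELISA, half-well high binding plates (Corning Cat. #3690) received 3 ug/mL/25 ul per well of biotin-tagged PSGL-1 peptides covering residues 42 to 62, diluted in PBS, pH 7.4, and coated overnight at 4° C. Duplicate readings for each antibody were averaged and the average assay background was subtracted. PSGL-1 protein or peptide was the positive control.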

[6] = molecular target: T5, Biotin PSGL-1(42-62) peptide, unmodified; test: ELISA, immobilized biotin peptide
Procedure, shortened: as §2

[7] = molecular target: T6, Scrambled Y42,52,63(SO3) PSGL-1(42-62) …; test: ELISA, immobilized biotin peptide
Procedure, shortened: as §2

[8] = molecular target: T7, Cynomolgus PSGL-1(ECD)-HIS; test: ELISA, plate cyno PSGL-1(ECD)-HIS
Protocol: Antibody binding to plate-immobilized cyno PSGL-1(ECD) was determined either at one concentration (20 nM) or by generating full antibody binding curves (0.003-200 nM). A typical ELISA was performed by overnight coating at 4° C. with 3 ug/mL/25 ul per well of recombinant cyno PSGL-1(ECD) protein in PBS, pH 7.4, in high binding half-well plates (Corning Cat. #3690). […] Anti-PSGL-1 IgG in assay buffer (blocking buffer containing 0.05% tween 20) was added into test and control wells (20 nM/25 ul/well) and the plate incubated for 45 min at 37° C. […] The plate was incubated for 45 min at 37° C., and mAb bound to plate-immobilized target determined at A450 nm using HRP substrate (3,3′,5,5′-tetramethylbenzidine (TMB)). For each antibody, duplicate values were averaged and assay background subtracted.

| Binder | binding normalized to PSGL-1 [1] | A450nm [2] | binding normalized to PSGL-1 (SulfoCCK biotin peptide) | % max Block [3] | IC50 [3] | A450nm [4] | A450nm, 20 nM mAb [5] | EC50 [6] | binding result [7] | EC50 [8] | EC50 [5] | A450nm, 20 nM mAb [7] | A450nm, 20 nM mAb [6] |
| --- | --- | --- | --- | --- | --- | --- | --- | --- | --- | --- | --- | --- | --- |
| 03D07 (antibody, IgG4, V domains shown) VH: EVKLLESGGGLVQPGGSLRLSCAASGFTFSSYALSWVRQAPGKGLEWVSAISGSGGNTYYADSVKGRFTISRDNSKNTLYLQMNSLRAEDTAVYYCAKVVGATNYWGQGTLVTVSS VL: DIVMTQTPLSLPVTLGQPASISCRSSQSLVYSDGHTYLSWFHQRPGQSPRRLIYKVSIRDSGVPDRFSGSGSGTDFTLKISRVEAEDVGVYYCMQRLQIPLTFGGGTKVEIK | 0.28 | 2.25 A450nm | 0.08 | 100% | 6 nM | 0.74 A450 nm | 2.73 A450nm | > 500 nM | no binding (tested: 20 nM) |  |  |  |  |
| 16E17 (antibody, V domains shown, From mouse immunisation; only variable domains given) VH: QIQLVQSGPELKKPGETVKISCKASGYAFTTYGMSWVKQAPGKGLKWMGWINTYSGVPKYADDFKGRFAFSLETSASTAYLHINNLKNEDTATYFCGRHYYGSSYFDYWGQGTTLTVSS VL: not shown |  |  |  | 0% |  |  |  |  |  | 0.53 nM |  |  |  |
| 19N05 (antibody, V domains shown, From mouse immunisation; only variable domains given) VH: QIQLVQSGPELKKPGETVKISCKASGYTFTTYGMSWVKQAPGKGLKWMGWINTYSGVPTFADDFKGRFAFSLETSASTAYLQINNLKNEDTATFFCARNYYGNHYFDYWGQGTTLTVSS VL: DVQITQSPSYLAASPGETISINCRASNNINKYLAWYQEKPGKTNKLLIYSGSTLQSGIPSRFSGSGSGTDFTLTISSLEPEDFAMYHCQQHNYYPLTFGAGTKLELK |  |  |  | 0% |  |  |  |  |  | 0.95 nM |  |  |  |
| 19L04 (antibody, IgG4, V domains shown, From mouse immunisation; only variable domains given) VH: QIQLVQSGPELKKPGETVKISCKASGYTFTTYGMSWVKQAPGKGLKWMGWINTYSGVPTYADDFKGRFAFSLETSASTAYLQINNLKIEDTATYFCARHYYGSHYFDYWGQGTTLTVSS VL: DIMMTQSPSSLAMSVGQKVTLRCKSSQSLLNSSNQKNYLAWYQQKPGQSPKLLVYFASTRESGVPVRFIGSGSGTDFTLTISSMQAEDLADYFCQQHYFSPLTFGAGTKLELK |  |  |  | 0% |  |  |  |  |  | 1.11 nM |  |  |  |
| 06A07 (antibody, IgG4, V domains shown) VH: QVQLVQSGPELKNPGASVKVSCKASGYSFTNFYINWVRQAPGRGLEWVGWISPNNGNTHYARNLQGRVTMTTDTSTNTAYLELKNLRSDDTAIYFCGRSVSMGYWGQGTLVTVSS VL: LPVLTQPPSVSKGLRQTATLTCTGNSKNVGNQGAAWLQQHQGQPPKLLSYRNNNRPSGISERFSASRSGNTASLTITGLQPEDEADYYCSAWDSSLSAQVFGGGTKLTVL | 0.68 | 2.51 A450nm | 0.65 |  |  | 1.27 A450 nm | 2.7 A450nm | 7.2 nM | no binding (tested: 20 nM) |  | ~0.02 nM | 0.02 A450nm |  |
| 10F01 (antibody, IgG4, V domains shown) VH: EVQLVQSGGGLVQPGGSLRLSCAASGFTFSSYAMSWVRQAPGKGLEWVSALRGGDGGTYHADSVKGRFTISGDSSKNTLYLQMNSLRAEDTAVYYCARRMVGAAYAFDIWGQGTMVTVSS VL: LPVLTQPHSVSESPGKTVTISCTRSSGSIADNFVQWYRQRPGSAPTTVIYEGDQRPSGVPGRFSGSIDSSSNSASLTISGLQTDDEADYYCQSFDSYNRRTHVVFGGGTKLTVL | 0.04 | 2.1 A450nm | 0.03 | 100% | 6 nM | 1.22 A450 nm | 2.39 A450nm |  |  |  |  |  |  |
| 18K07 (antibody, V domains shown, From mouse immunisation; only variable domains given) VH: QIQLVQSGPELKKPGETVKISCEASGYTFTTYGMNWVKQAPGKGLKWMGWINTYSGVPTYADDFQGRFAFSVETSATTAYLQINNLKNEDAATYFCARSDDTYYGFAYWGQGTLVTVSA VL: not shown |  |  |  | 0% |  |  |  |  |  | 8.49 nM |  |  |  |
| 09C10 (antibody, V domains shown) VH: EVKLLESGGGLIQPGGSLRLSCAASGFTVSNNYVTWVRQAPGKGLELVSSIYSGGGTYYADSVKGRFTISRDNSKNTVYLQMNSLRADDTAVYYCARNVPVTNFGYWGQGTLVTVSS VL: DIVMTQSPLSLPVTLGQPASISCRSSQSLVYRDGNTYLNWFQQRPGQSPRRLIYKVSNRDSGVPDRFSGSGSGTDFTLKISRVEAEDVGVYYCMQLTHWPPGFAQGTKLEIK | 1.2 | 2.16 A450nm | 0.75 |  |  | 1.17 A450 nm | 2.77 A450nm |  |  |  |  | 0.21 A450nm | 0.2 A450nm |
| 06C04 (antibody, IgG4, V domains shown) VH: EVQLVESGGGLVQPGGSLRLSCAASGFTFSDHYMDWVRQAPGKGLEWVGRSRNKVKSYTTAYAASVEGRITISRDDSKNSLYLEMNSLKTEDTAVYYCVRVRWGGAFDIWGQGTMVTVSS VL: QPVLTQPPSASGSPGQSVTISCTGTSSDVGGYNYVSWYQQHPGKAPKLMIYEVSKRPSGVPDRFSGSKSGNTASLTVSGLQAEDEADYYCSSYAGSNNLRVFGGGTKLTVL | 0.26 | 2.22 A450nm | 0.06 |  |  | 0.55 A450 nm | 2.64 A450nm |  | no binding (tested: 20 nM) |  |  |  | 0.07 A450nm |
| 20I15 (antibody, V domains shown, From mouse immunisation; only variable domains given; also called 20115) VH: EVKLVESGGGLVQPGGSLSLSCAASGFTFTDYYMSWVRQPPGKALEWLGFIRNKANGYTTEYSASVKGRFTISRDNSQSILYLQMNALRAEDSATYYCARTYLRRGYFDVWGTGTTVTVSS VL: DIVLTQSPASLAVSLGQRATISCRASKSVSTSGYSYMHWFQQKPGQPPKLLIYLASNLESGVPARFSGSGSGTDFTLNIHPVEEEDAATYYCQHSRELPLTFGAGTKLELK | 0.35 | 2.45 A450nm |  | 65% | 20 nM |  |  | ~300 nM |  |  | 0.485 nM |  |  |
